From article PMC12416549 (2024)
Numbering of substitutions follows the chain as printed. In names and notes the source's numbering stands.

B1: A11Q (designed binder)
chain: MTLQELLREEQLRRAEAEAFRYALELLAEKFPEQKEYLLDLAEEIESQIRSLSGVDVEDVRKFLDKEWAWVKELLAEHPAELAEVEAARAARLAELRAEVEAKVAA
B2: R61H (designed binder)
chain: B1 chain with Q11A, R61H
B3: E67G (designed binder)
chain: B1 chain with Q11A, E67G
B4: L41R (designed binder)
chain: B1 chain with Q11A, L41R
B5: L41Y (designed binder)
chain: B1 chain with Q11A, L41Y
B6: E46Y (designed binder)
chain: B1 chain with Q11A, E46Y
B7: M1D (designed binder)
chain: B1 chain with M1D, Q11A
B8: A15H (designed binder)
chain: B1 chain with Q11A, A15H
B9: F31E (designed binder)
chain: B1 chain with Q11A, F31E
B10: F31Y (designed binder)
chain: B1 chain with Q11A, F31Y
B11: A11W (designed binder)
chain: B1 chain with Q11W
B12: I49R (designed binder)
chain: B1 chain with Q11A, I49R
B13: L38T (designed binder)
chain: B1 chain with Q11A, L38T
B14: R97I (designed binder)
chain: B1 chain with Q11A, R97I
B15: S47G (designed binder)
chain: B1 chain with Q11A, S47G
B16: A94L (designed binder)
chain: B1 chain with Q11A, A94L
B17: A102Y (designed binder)
chain: B1 chain with Q11A, A102Y
B18: K35S (designed binder)
chain: B1 chain with Q11A, K35S
B19: H78Q (designed binder)
chain: B1 chain with Q11A, H78Q
B20: L6C (designed binder)
chain: B1 chain with L6C, Q11A
B21: E33N (designed binder)
chain: B1 chain with Q11A, E33N
B22: E43T (designed binder)
chain: B1 chain with Q11A, E43T
B23: A76H (designed binder)
chain: B1 chain with Q11A, A76H
B24: I49T (designed binder)
chain: B1 chain with Q11A, I49T
B25: Y37S (designed binder)
chain: B1 chain with Q11A, Y37S
B26: K62C (designed binder)
chain: B1 chain with Q11A, K62C
B27: K30L (designed binder)
chain: B1 chain with Q11A, K30L
B28: W70R (designed binder)
chain: B1 chain with Q11A, W70R
B29: K35R (designed binder)
chain: B1 chain with Q11A, K35R
B30: R89A (designed binder)
chain: B1 chain with Q11A, R89A
B31: W68A (designed binder)
chain: B1 chain with Q11A, W68A
B32: T2A (designed binder)
chain: B1 chain with T2A, Q11A
B33: R8Y (designed binder)
chain: B1 chain with R8Y, Q11A
B34: A102P (designed binder)
chain: B1 chain with Q11A, A102P
B35: K35I (designed binder)
chain: B1 chain with Q11A, K35I
B36: L75G (designed binder)
chain: B1 chain with Q11A, L75G
B37: R50K (designed binder)
chain: B1 chain with Q11A, R50K
B38: P32Q (designed binder)
chain: B1 chain with Q11A, P32Q
B39: E33L (designed binder)
chain: B1 chain with Q11A, E33L
B40: P79L (designed binder)
chain: B1 chain with Q11A, P79L
B41: R21I (designed binder)
chain: B1 chain with Q11A, R21I
B42: E36K (designed binder)
chain: B1 chain with Q11A, E36K
B43: F63W (designed binder)
chain: B1 chain with Q11A, F63W
B44: E95V (designed binder)
chain: B1 chain with Q11A, E95V
B45: S47E (designed binder)
chain: B1 chain with Q11A, S47E
B46: L7S (designed binder)
chain: B1 chain with L7S, Q11A
B47: V60H (designed binder)
chain: B1 chain with Q11A, V60H
B48: V85A (designed binder)
chain: B1 chain with Q11A, V85A
B49: A91K (designed binder)
chain: B1 chain with Q11A, A91K
B50: R89P (designed binder)
chain: B1 chain with Q11A, R89P
B51: V57D (designed binder)
chain: B1 chain with Q11A, V57D
B52: E58F (designed binder)
chain: B1 chain with Q11A, E58F
B53: V85K (designed binder)
chain: B1 chain with Q11A, V85K
B54: K30I (designed binder)
chain: B1 chain with Q11A, K30I
B55: A80H (designed binder)
chain: B1 chain with Q11A, A80H

Biological target: T1, TNFR1 (Homo sapiens, UniProt P19438)
T1 chain: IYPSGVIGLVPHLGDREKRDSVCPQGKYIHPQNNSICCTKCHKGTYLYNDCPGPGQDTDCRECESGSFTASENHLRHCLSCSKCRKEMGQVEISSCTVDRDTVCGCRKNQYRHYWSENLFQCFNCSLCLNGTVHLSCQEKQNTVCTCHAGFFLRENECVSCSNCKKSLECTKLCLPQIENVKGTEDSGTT
Test: yeast display SC50
B1 was tested, and the “apparent Kd (screen)” value was 0.79 nM. B2 was tested, and the “apparent Kd (screen)” value was 1.4 nM. B3 was tested, and the “apparent Kd (screen)” value was 13.8 nM. For B4, the “apparent Kd (screen)” value was 15.2 nM. For B5, the “apparent Kd (screen)” value was 0.718 nM. In the case of B6, the “apparent Kd (screen)” value is reported as 0.539 nM. For B7, the “apparent Kd (screen)” value was 0.446 nM. B8 was tested, and the “apparent Kd (screen)” value was 0.539 nM. With B9 the “apparent Kd (screen)” value was 0.49 nM. In the case of B10, the “apparent Kd (screen)” value is reported as 0.593 nM. For B11, the “apparent Kd (screen)” value was 0.405 nM. With B12 the “apparent Kd (screen)” value was 0.593 nM. In the case of B13, the “apparent Kd (screen)” value is reported as 26.9 nM. B14 was tested, and the “apparent Kd (screen)” value was 0.539 nM. B15 was tested, and the “apparent Kd (screen)” value was 1.27 nM. For B16, the “apparent Kd (screen)” value was 0.956 nM. B17 was tested, and the “apparent Kd (screen)” value was 0.653 nM. With B18 the “apparent Kd (screen)” value was 0.653 nM. With B19 the “apparent Kd (screen)” value was 0.869 nM. With B20 the “apparent Kd (screen)” value was 2.05 nM. With B21 the “apparent Kd (screen)” value was 0.539 nM. In the case of B22, the “apparent Kd (screen)” value is reported as 0.79 nM. For B23, the “apparent Kd (screen)” value was 0.79 nM. For B24, the “apparent Kd (screen)” value was 0.539 nM. With B25 the “apparent Kd (screen)” value was 12.5 nM. B26 was tested, and the “apparent Kd (screen)” value was 0.49 nM. In the case of B27, the “apparent Kd (screen)” value is reported as 0.539 nM. In the case of B28, the “apparent Kd (screen)” value is reported as 12.5 nM. B29 was tested, and the “apparent Kd (screen)” value was 0.49 nM. In the case of B30, the “apparent Kd (screen)” value is reported as 0.79 nM. B31 was tested, and the “apparent Kd (screen)” value was 1.4 nM. With B32 the “apparent Kd (screen)” value was 0.79 nM. B33 was tested, and the “apparent Kd (screen)” value was 1.05 nM. B34 was tested, and the “apparent Kd (screen)” value was 0.956 nM. With B35 the “apparent Kd (screen)” value was 2.48 nM. B36 was tested, and the “apparent Kd (screen)” value was 1.4 nM. With B37 the “apparent Kd (screen)” value was 0.539 nM. In the case of B38, the “apparent Kd (screen)” value is reported as 0.593 nM. B39 was tested, and the “apparent Kd (screen)” value was 0.653 nM. For B40, the “apparent Kd (screen)” value was 0.718 nM. With B41 the “apparent Kd (screen)” value was 0.49 nM. With B42 the “apparent Kd (screen)” value was 3.99 nM. In the case of B43, the “apparent Kd (screen)” value is reported as 0.869 nM. For B44, the “apparent Kd (screen)” value was 0.49 nM. With B45 the “apparent Kd (screen)” value was 0.49 nM. In the case of B46, the “apparent Kd (screen)” value is reported as 13.8 nM. In the case of B47, the “apparent Kd (screen)” value is reported as 1.27 nM. For B48, the “apparent Kd (screen)” value was 0.79 nM. With B49 the “apparent Kd (screen)” value was 0.49 nM. B50 was tested, and the “apparent Kd (screen)” value was 24.4 nM. For B51, the “apparent Kd (screen)” value was 3.99 nM. In the case of B52, the “apparent Kd (screen)” value is reported as 2.73 nM. B53 was tested, and the “apparent Kd (screen)” value was 0.653 nM. B54 was tested, and the “apparent Kd (screen)” value was 0.49 nM. B55 was tested, and the “apparent Kd (screen)” value was 0.869 nM.
